Measured values reported in patent publication US12559525B2, “Conjugated fibronectin-binding peptides for use in tumor or fibrosis diagnosis and therapy” (priority 2021, dated 2026).
No end group written: not given here.

Legend:
[1] = target: T1, Fib1 (N-terminal 30 kDa fragment of fibronectin, SEQ ID NO: 14) (Homo sapiens, UniProt P02751); test: Affinity towards Fib1 by fluorescence polarization; format: binding; conditions: fluorescence polarization assay (Example 1, FIG. 1)
T1 construct: 6-His (C); made in house
Procedure: FIG. 1: Affinity measurements of Cy5-labelled FnBPA5.1 and FnBPA5 towards the N-terminal 30 kDa fragment of Fibronectin (Fib1) according to SEQ ID NO: 14. Curves display triplicates measurements of fluorescence polarization. Error bars display standard deviations. Analysis was conducted using GraphPad Prism. KD is shown in nM.
Preferably, said affinity is measurable by using a fluorescence anisotropy assay, using a peptide with N-terminally appended Cy5 label (as described in Preparative Example 1). Detailed protocol for the measurement is included in Example 1.
For the affinity measurement experiment, Cy5-FnBPA5.1 (according to SEQ DI NO: 12) and Cy5-FnBPA5 (according to SEQ DI NO: 13) (48 nM) were mixed with different concentrations of Fib 1—N-terminal 30 kDa fragment of fibronectin according to SEQ ID NO: 14 (0 nM-4.5 μM) in PBS pH 7.4. Samples were incubated for 1 h (37° C., 70 rpm) and fluorescence polarization was measured in triplicates using the Pherastar FSX plate reader (BMG Labtech; Optic module: FP 590-50 675-50 675-50). […]

[2] = system: PC-3 tumor; test: Biodistribution of 111In-labelled peptides in PC-3 xenografts; format: in vivo, CD1 nu/nu mice; conditions: radioisotope-labelled peptide
Procedure: FIG. 4: Biodistribution of ^111In-labeled NODAGA-FnBPA5 and its engineered version NODAGA-FnBPA5.1 in PC-3 tumor-bearing CD1 nu/nu mice 24 hours after injection. Results are shown as averages of % injected activity per gram±SD (n=4).
(§1) Animal studies were carried out according to the Swiss Animal Protection Law under the license AG75700. For tumor implantation, 5×10^6 PC-3 cells in 100 μL PBS were injected subcutaneously into both shoulders of female CD1 nu/nu mice (Charles River, Germany) under isoflurane/oxygen anesthesia. Tumor growth was inspected regularly and tumors were measured using a caliper. Five weeks after tumor implantation, mice were injected via the tail vein with approximately 100-150 kBq of the corresponding ^111In-labelled radiotracers, previously diluted with PBS to a concentration of 1-1.5 MBq/mL. At 24 h p.i., mice were euthanized using CO2. The organs of interest were harvested, weighed and counted by means of gamma counter together with three standards containing 100 μL of the injection solution. The percentage of injected activity per gram (% IA/g) was calculated based on the average of the standards set at 100%.

[3] = system: 67NR breast tumor; test: Biodistribution of 111In-labelled peptides in 67NR orthotopic and syngeneic breast tumor model; format: in vivo, Balb/c mice; conditions: radioisotope-labelled peptide, 67NR orthotopic and syngeneic breast tumor mice
Procedure: FIG. 5: Biodistribution of ^111In-labeled NODAGA-FnBPA5 and its engineered version NODAGA-FnBPA5.1 in 67NR tumor-bearing mice 24 hours after injection. Results are shown as averages of % injected activity per gram±SD (n=4).
as §1, with “implantation, 40′000 67NR” for “implantation, 5×10^6 PC-3”, “in 50” for “in 100”, “into the mammary fat pad at the 4th nipple” for “into both shoulders”, “female Balb/c” for “female CD1 nu/nu”, “caliper. Two” for “caliper. Five”

T1 sequence (P02751 32-290): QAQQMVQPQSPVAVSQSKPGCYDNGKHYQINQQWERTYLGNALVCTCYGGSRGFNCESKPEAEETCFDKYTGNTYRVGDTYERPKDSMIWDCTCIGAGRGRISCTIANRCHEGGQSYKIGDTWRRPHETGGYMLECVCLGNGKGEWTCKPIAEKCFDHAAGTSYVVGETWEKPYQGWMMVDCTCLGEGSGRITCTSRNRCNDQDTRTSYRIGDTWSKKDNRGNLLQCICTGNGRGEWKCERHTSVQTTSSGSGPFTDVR

Substance: Gln-Val-Thr-Thr-Gly-Ser-Asn-Leu-Val-Glu-Phe-Thr-Glu-Glu-Ser-Leu-Gly-Ie-Val-Thr-Gly-Ala-Val-Ser-Asp-His-Thr-Thr-Val-Glu-Asp-Thr (QVTTGSNLVEFTEESLGIVTGAVSDHTTVEDT; not fully specified) [FnBPA5.1]
- Affinity for Fib1 compared with FnBPA5 [1]: improved affinity
- Uptake in tumors compared with FnBPA5 ([2]; PC3 xenograft mice): improved uptake in tumors
- Uptake in spleen and liver compared with FnBPA5 ([2]; tumor model not given): lower uptake in spleen and liver
- Uptake in tumors compared with FnBPA5 [3]: improved uptake in tumors
